T1: fibulin‐4 (FBLN4), recombinant full-length human (human, UniProt O95967 24-443)
T1 sequence (looked up): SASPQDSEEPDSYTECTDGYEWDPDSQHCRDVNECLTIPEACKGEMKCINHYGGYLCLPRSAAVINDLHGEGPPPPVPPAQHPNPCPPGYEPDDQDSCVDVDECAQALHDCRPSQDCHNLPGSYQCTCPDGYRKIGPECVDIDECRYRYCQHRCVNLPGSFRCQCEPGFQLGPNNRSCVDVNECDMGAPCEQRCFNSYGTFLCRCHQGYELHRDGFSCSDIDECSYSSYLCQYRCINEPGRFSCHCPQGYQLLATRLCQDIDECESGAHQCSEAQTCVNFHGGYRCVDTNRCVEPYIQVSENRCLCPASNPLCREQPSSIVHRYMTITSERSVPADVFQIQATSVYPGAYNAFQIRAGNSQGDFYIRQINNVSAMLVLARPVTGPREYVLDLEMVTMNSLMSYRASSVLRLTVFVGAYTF

B1: recombinant syndecan-3 ectodomain (SDC3‐ED) (domain or fragment, human, UniProt O75056 48-387, looked up)
chain: QRWRSENFERPVDLEGSGDDDSFPDDELDDLYSGSGSGYFEQESGIETAMRFSPDVALAVSTTPAVLPTTNIQPVGTPFEELPSERPTLEPATSPLVVTEVPEEPSQRATTVSTTMATTAATSTGDPTVATVPATVATATPSTPAAPPFTATTAVIRTTGVRRLLPLPLTTVATARATTPEAPSPPTTAAVLDTEAPTPRLVSTATSRPRALPRPATTQEPDIPERSTLPLGTTAPGPTEVAQTPTPETFLTTIRDEPEVPVSGGPSGDFELPEEETTQPDTANEVVAVGGAAAKASSPPGTLPKGARPGPGLLDNAIDSGSSAAQLPQKSILERKEVLV
B2: recombinant syndecan-2 ectodomain (SDC2‐ED) (domain or fragment, human, UniProt P34741 19-144, looked up)
chain: ESRAELTSDKDMYLDNSSIEEASGVYPIDDDDYASASGSGADEDVESPELTTSRPLPKILLTSAAPKVETTTLNIQNKIPAQTKSPEETDKEKVHLSDSERKMDPAEEDTNVYTEKHSDSLFKRTE

Columns and labels:
Assay in all cases: SPR
[1] = target: latent TGF‐β binding protein‐4, short isoform (LTBP4S), recombinant full-length human (human)
[2] = target: latent TGF‐β binding protein‐4, long isoform (LTBP4L), recombinant full-length human (human, UniProt Q8N2S1-1 28-1624)
[3] = target: T1, fibulin‐4 (FBLN4), recombinant …

Molecule	koff [1] [s⁻¹]	koff [2] [s⁻¹]	koff [3] [s⁻¹]
recombinant syndecan-3 ectodomain (SDC3‐ED) (from UniProt O75056 48-387) (domain or fragment)	6.3e-05		
B1		5.5e-05	0.00082
B2			0.00041

From article PMC11960800 (The FASEB Journal, 2025)
